Source: paper PMC10504544, “1-deoxy-D-xylulose-5-phosphate synthase from Pseudomonas aeruginosa and Klebsiella pneumoniae reveals conformational changes upon cofactor binding” (The Journal of Biological Chemistry, 2023)

Experiments:
[1] = tested on: Cc1ncc(C[n+]2csc(CCO[P@](=O)(O)OP(=O)(O)O)c2C)c(N)n1; assay: steady-state kinetics (Km); assay type: biochemical, Klebsiella pneumoniae; conditions: Mg2+ active site; diphosphate in asparagine-rich region with H bond from Ser52; varied: cofactor
[2] = tested on: O=CC(O)COP(=O)(O)O; assay: steady-state kinetics (Km), IspC-coupled assay; assay type: biochemical, Klebsiella pneumoniae; conditions: ThDP, Mg2+
[3] = tested on: CC(=O)C(=O)O; assay: steady-state kinetics (Km), IspC-coupled assay; assay type: biochemical, Klebsiella pneumoniae; conditions: ThDP, Mg2+
[4] = tested on: Cc1ncc(C[n+]2csc(CCO[P@](=O)(O)OP(=O)(O)O)c2C)c(N)n1; assay: purified protein; assay type: biochemical, Pseudomonas aeruginosa; conditions: varied: cofactor

**Q.** “1-deoxy-D-xylulose-5-phosphate synthase (kpDXPS) (Klebsiella pneumoniae subsp. pneumoniae MGH 78578; DEL197-240/INS196GGGGGG)” was tested. Which Km [1] did it give?
**A.** The Km was 0.11 ± 0.017 µM.

**Q.** And the Km [2]?
**A.** The Km was 170 ± 43 µM.

**Q.** And the Km [3]?
**A.** Its Km is 113 ± 34 µM.

**Q.** How did the Km [4] turn out when “1-deoxy-D-xylulose-5-phosphate synthase (paDXPS) (Pseudomonas aeruginosa LESB58; DEL206-245/INS205GGGGGG)” was run?
**A.** The Km was 0.0965 ± 0.014 µM.
